Legend:
Test in all cases: cell_activity
[1] = tested on: T1, scTrex2-SC_CAPNS1 (engineered (human TREX2 fusion)); conditions: 293H endogenous locus
T1 sequence: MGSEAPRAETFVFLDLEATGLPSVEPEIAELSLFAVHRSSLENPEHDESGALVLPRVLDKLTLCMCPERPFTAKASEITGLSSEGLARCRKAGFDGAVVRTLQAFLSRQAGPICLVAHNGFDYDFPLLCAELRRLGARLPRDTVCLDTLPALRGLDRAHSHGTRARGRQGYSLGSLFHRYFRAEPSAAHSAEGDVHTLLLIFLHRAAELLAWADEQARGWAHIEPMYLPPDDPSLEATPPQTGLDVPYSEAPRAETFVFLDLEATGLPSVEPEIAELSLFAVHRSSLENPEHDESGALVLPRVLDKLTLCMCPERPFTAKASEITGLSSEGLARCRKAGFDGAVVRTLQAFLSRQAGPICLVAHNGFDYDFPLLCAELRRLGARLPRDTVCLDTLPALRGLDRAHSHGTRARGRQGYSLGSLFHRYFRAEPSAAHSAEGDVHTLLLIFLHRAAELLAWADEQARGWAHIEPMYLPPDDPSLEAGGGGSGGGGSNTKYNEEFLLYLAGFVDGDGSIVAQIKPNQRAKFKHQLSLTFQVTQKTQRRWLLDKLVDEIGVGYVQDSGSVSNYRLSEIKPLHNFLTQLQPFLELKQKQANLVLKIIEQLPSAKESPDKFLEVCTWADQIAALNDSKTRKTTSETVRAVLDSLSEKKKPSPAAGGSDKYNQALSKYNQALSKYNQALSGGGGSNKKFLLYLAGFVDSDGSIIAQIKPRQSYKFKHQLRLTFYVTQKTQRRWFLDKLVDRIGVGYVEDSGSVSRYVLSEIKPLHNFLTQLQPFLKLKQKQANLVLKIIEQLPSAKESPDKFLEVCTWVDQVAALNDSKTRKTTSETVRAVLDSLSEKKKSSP

[2] = tested on: T2, SC_CAPNS1 single-chain meganuclease (engineered); conditions: 293H endogenous locus; 18.25 with TREX2, 25.4 with scTREX2
T2 sequence: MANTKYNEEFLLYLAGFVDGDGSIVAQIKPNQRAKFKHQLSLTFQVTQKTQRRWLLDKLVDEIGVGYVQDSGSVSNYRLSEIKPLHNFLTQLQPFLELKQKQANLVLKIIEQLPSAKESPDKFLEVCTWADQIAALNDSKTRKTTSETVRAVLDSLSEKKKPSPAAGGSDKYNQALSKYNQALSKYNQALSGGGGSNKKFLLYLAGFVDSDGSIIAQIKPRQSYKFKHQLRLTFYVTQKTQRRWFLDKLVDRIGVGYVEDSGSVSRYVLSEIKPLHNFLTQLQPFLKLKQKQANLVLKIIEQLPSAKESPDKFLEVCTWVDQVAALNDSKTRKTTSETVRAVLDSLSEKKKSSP

[3] = tested on: T3, SC_RAG single-chain meganuclease (engineered); conditions: 293H endogenous locus; 4.69 with TREX2, 5.41 with scTREX2
T3 sequence: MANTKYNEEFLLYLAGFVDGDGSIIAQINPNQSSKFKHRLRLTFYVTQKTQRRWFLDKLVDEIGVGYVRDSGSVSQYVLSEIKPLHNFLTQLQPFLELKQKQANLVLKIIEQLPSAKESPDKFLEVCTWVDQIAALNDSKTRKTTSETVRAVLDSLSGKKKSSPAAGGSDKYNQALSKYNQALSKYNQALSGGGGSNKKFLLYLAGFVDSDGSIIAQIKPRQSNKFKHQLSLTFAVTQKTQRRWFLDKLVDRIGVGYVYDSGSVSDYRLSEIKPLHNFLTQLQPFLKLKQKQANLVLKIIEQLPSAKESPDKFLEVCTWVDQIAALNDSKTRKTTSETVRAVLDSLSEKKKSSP

[4] = tested on: T4, scTrex2-SC_RAG (engineered (human TREX2 fusion)); conditions: 293H endogenous locus
T4 sequence: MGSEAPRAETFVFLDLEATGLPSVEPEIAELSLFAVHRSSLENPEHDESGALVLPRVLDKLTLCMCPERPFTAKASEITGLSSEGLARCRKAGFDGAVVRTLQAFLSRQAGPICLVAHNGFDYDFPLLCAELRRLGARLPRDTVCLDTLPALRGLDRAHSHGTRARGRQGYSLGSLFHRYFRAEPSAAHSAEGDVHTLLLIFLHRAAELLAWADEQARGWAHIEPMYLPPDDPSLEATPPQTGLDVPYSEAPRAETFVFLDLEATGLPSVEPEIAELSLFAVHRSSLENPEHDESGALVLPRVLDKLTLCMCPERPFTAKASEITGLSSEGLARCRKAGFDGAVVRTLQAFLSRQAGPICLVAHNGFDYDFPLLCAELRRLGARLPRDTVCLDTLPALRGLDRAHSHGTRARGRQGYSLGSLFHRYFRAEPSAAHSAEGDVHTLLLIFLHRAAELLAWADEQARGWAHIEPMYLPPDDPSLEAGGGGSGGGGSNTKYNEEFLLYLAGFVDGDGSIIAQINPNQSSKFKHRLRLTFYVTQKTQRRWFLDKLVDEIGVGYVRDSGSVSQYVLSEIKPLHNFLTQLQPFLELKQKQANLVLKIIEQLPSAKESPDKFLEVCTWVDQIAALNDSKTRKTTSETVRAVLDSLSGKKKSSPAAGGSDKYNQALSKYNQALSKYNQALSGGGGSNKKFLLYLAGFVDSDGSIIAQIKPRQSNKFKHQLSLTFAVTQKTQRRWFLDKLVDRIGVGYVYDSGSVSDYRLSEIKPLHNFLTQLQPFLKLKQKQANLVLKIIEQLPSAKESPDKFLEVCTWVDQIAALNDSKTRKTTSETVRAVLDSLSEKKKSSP

## CAPNS1 locus meganuclease target
[1]
  activity (% targeted mutagenesis): 35.8
[2]
  activity (% targeted mutagenesis): 15.2

## RAG1 locus target
[3]
  activity (% targeted mutagenesis): 1.4
[4]
  activity (% targeted mutagenesis): 8.42

From patent US20140234975
